Measurements from patent US20060127409A1 (published 2006).
One block for each binder: values may come before it.

Columns and labels:
[1] = target: T1, HLA-A0201 molecule on T2 cells (TAP-, HLA-A0201+) (human); assay: T2 binding and stabilization assay, flow cytometry with BB7.2
T1 construct: Empty, thermolabile HLA-A0201 on TAP-deficient T2 cells, stabilised by added peptide; surface level read with mAb BB7.2; also called HLA-A2.1; HLA-A2
Experimental: (§1) T2 cells (TAP-, HLA-A0201⁺) were incubated overnight at 37° C. at a concentration of 1×10⁶ cells/ml in FCS-free RPMI medium supplemented with 5 μg/ml human β₂m (Sigma, St Louis, Mo.) in the absence (negative control) or presence of either a positive reference tyrosinase peptide or test peptides at various final concentrations (50, 10, 1, and 0.1 micrograms (μg)/ml). Following a 4-hour incubation with 5 μg/ml brefeldin A (Sigma), T2 cells were labeled for 30 minutes at 4° C. with a saturating concentration of anti-HLA-A2.1 (BB7.2) mAb, then washed twice. Cells were then incubated for 30 minutes, 4° C. with a saturating concentration of FITC-conjugated goat IgG F(ab′)2 anti-mouse Ig (Caltag, San Francisco, Calif.), washed twice, fixed in PBS/1% paraformaldehyde and analyzed using a FACS Calibur® cytofluorometer (Becton Dickinson, Immunocytometry Systems, San Jose, Calif.)
(§2) The mean intensity of fluorescence (MIF) observed for each peptide concentration (after dividing by the MIF in the absence of peptide) was used as an indication of peptide binding and expressed as a “fluorescence index.” Stabilization assays were performed similarly. Following initial evaluation of peptide binding at time 0, cells were washed in RPMI complete medium to remove free peptides and incubated in the continuous presence of 0.5 μg/ml brefeldin-A for 2, 4, 6 or 8 hours.

[2] = target: T1, HLA-A0201 molecule on T2 cells (TAP-, …); assay: refers to the T2 assay
Experimental: as §1, §2

Binder: KALQRPVAS [p210Cn native (p210-b3a2)]
binding result [1]: binds

B1: b2a2 A3 (analogue) (peptide)
peptide: YLINKEEAL
notes: Synthetic analogue of b2a2A; also called YLINKEEAL
binding result [1]: binds

Binder: YLINKEEAV (Synthetic analogue of b2a2A) [b2a2 A4 (analogue)]
binding result [1]: binds

Continued, values first:

binding result [1]: binds
B2: b2a2 A5 (analogue) (peptide)
peptide: YLINKVEAL
notes: Synthetic analogue of b2a2A; also called YLINKVEAL

binding result [2]: binds
Binder: SSKALQRPV (Synthetic 9-mer) [CMLA2 native (p210-b3a2)]
